The text below walks through data of patent publication US20100172907A1 (Hoffmann-La Roche, published 2010).

Residue numbers refer to the chain shown, from its start. Groups on a side chain read outwards from the residue. No end group written: not given here. NSMP = not defined here

First the molecules themselves.
T1: BSA-conjugated Aβ heptapeptide FFAEDVC (C-terminal Cys coupled to NSMP-activated BSA)
T1 construct: also called Peptide 19-24
T1 peptide: FFAEDVC

T2: BSA-conjugated Aβ heptapeptide LVFFAEC (reading uncertain; also: BSA conjugate)
T2 construct: also called Peptide 17-22
T2 peptide: LVFFAEC([NSMP-BSA])

T3: BSA-conjugated Aβ heptapeptide AEFRHDC (C-terminal Cys coupled to NSMP-activated BSA)
T3 construct: also called Peptide 2-7
T3 peptide: AEFRHDC

T4: BSA-conjugated Aβ heptapeptide VFFAEDC (C-terminal Cys coupled to NSMP-activated BSA)
T4 construct: also called Peptide 18-23
T4 peptide: VFFAEDC

B1: MS-Roche #7.9.H1 Fab (Fab, V domains shown)
VH: QVQLVESGGGLVQPGGSLRLSCAASGFTFSSYAMSWVRQAPGKGLEWVSAINANGQRKFYADSVKGRFTISRDNSKNTLYLQMNSLRAEDTAVYYCARGKGNTHKPYGYVRYFDVWGQGTLVTVSS
VL: DIVLTQSPATLSLSPGERATLSCRASQSVSSSYLAWYQQKPGQAPRLLIYGASSRATGVPARFSGSGSGTDFTLTISSLEPEDFATYYCLQIYNMPITFGQGTKVEIKR
notes: assembled
B2: MS-Roche #7.4.H1 Fab (Fab, V domains shown)
VH: B1 VH with N54T, Q56Y, K58T, F59Y
VL: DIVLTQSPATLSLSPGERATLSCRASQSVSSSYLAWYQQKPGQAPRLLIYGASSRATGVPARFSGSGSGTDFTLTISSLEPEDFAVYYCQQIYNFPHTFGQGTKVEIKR
B3: MS-Roche #3.4.H13 Fab (Fab, V domains shown)
VH: QVQLVESGGGLVQPGGSLRLSCAASGFTFSSYAMSWVRQAPGKGLEWVSAISEQGRNIYYADSVKGRFTISRDNSKNTLYLQMNSLRAEDTAVYYCARLTHYARYYRYFDVWGQGTLVTVSS
VL: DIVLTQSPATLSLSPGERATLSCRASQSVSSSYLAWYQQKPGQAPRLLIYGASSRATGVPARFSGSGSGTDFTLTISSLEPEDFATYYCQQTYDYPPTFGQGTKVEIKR
B4: MS-Roche #3.6.H3 Fab (Fab, V domains shown)
VH: B3 VH with A50V, Q54T, R56K, N57F
VL: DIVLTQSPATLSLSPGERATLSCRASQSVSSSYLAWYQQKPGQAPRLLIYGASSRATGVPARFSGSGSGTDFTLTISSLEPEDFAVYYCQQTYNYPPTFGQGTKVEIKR
B5: MS-Roche #3.6.L2 Fab (Fab, V domains shown)
VH: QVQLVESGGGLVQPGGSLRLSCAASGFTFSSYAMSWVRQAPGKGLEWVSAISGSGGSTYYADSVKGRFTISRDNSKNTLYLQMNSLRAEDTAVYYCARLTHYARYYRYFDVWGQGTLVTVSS
VL: B1 VL with S28F, V29L, S31R, S32Y, T86V, L90Q, I92T, M95Y, I97P
B6: MS-Roche #3.4.H14 Fab (Fab, V domains shown)
VH: B3 VH with Q54S, R56Q, N57Y, I58K
VL: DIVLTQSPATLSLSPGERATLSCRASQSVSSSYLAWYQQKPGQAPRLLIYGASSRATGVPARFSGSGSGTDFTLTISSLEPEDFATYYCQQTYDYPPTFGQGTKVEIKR
B7: MS-Roche #3.4.L9 Fab (Fab, V domains shown)
VH: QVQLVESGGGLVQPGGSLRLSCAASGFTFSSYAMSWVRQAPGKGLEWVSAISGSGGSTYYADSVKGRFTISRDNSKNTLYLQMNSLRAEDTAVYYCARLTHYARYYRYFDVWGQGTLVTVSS
VL: DIVLTQSPATLSLSPGERATLSCRASRRIHVYYLAWYQQKPGQAPRLLIYGASSRATGVPARFSGSGSGTDFTLTISSLEPEDFATYYCQQTYDYPPTFGQGTKVEIKR
B8: MS-Roche #7.2.H6 Fab (Fab, V domains shown)
VH: B1 VH with N54R, Q56N, K58T, F59Y
VL: B1 VL with L90Q, N94S, M95F, I97H
B9: MS-Roche #7.12.H1 Fab (Fab, V domains shown)
VH: B1 VH with A33G, A50N, A53G, Q56N, F59Y
VL: DIVLTQSPATLSLSPGERATLSCRASQYVFRRYLAWYQQKPGQAPRLLISGSSNRATGVPARFSGSGSGTDFTLTISSLEPEDFAVYYCLQLYNIPNTFGQGTKVEIKR
B10: MS-Roche #7.12.L2 Fab (Fab, V domains shown)
VH: B1 VH with A33G, A50N, N52S, A53G, N54S, Q56S, R57S, K58T, F59Y
VL: B9 VL with Y28R, V29F, R31Y, R32K
B11: MS-Roche #7.12.L4 Fab (Fab, V domains shown)
VH: B1 VH with A33G, A50N, N52S, A53G, N54S, Q56S, R57S, K58T, F59Y
VL: B9 VL with Y28R, V29L, F30K, R32S
B12: MS-Roche #7.12.L3 Fab (Fab, V domains shown)
VH: B1 VH with A33G, A50N, N52S, A53G, N54S, Q56S, R57S, K58T, F59Y
VL: B9 VL with Y28F, F30R, R32G, Y33F
B13: MS-Roche #7.2.H7 Fab (Fab, V domains shown)
VH: B1 VH with A53S, N54R, Q56S, R57D, K58T, F59H
VL: B1 VL with L90Q, N94S, M95F, I97H
B14: MS-Roche #7.11.L1 Fab (Fab, V domains shown)
VH: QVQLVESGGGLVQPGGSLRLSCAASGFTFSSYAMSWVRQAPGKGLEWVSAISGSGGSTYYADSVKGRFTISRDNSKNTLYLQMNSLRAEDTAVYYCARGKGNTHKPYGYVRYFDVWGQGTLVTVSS
VL: B7 VL with R27Q, H30L, V31R, Y32I, T92V, D94S, Y95P, P97H
B15: MS-Roche #7.2.L2 Fab (Fab, V domains shown)
VH: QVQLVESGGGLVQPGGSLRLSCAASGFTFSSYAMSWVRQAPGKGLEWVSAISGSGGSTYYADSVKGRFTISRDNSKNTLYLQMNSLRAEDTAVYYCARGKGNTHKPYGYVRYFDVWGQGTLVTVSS
VL: B1 VL with S28Y, V29I, S31F, S32R, L90Q, N94S, M95F, I97H
B16: MS-Roche #7.2.L4 Fab (Fab, V domains shown)
VH: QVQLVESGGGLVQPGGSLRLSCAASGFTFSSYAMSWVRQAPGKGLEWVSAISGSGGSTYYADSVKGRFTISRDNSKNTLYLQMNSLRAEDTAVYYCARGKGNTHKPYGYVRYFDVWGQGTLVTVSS
VL: B1 VL with S28F, V29I, S30R, S31R, L90Q, N94S, M95F, I97H
B17: MS-Roche #7.2.H8 Fab (Fab, V domains shown)
VH: B1 VH with N54S, Q56H, R57K, K58T, F59Y
VL: B1 VL with L90Q, N94S, M95F, I97H
B18: MS-Roche #7.9.L1 Fab (Fab, V domains shown)
VH: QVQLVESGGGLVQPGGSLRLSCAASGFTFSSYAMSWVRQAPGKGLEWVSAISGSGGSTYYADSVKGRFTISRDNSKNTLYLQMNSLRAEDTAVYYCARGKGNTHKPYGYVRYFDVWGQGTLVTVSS
VL: B1 VL with S28R, V29L, S31P, S32R
B19: MS-Roche #7.9.H5 Fab (Fab, V domains shown)
VH: B1 VH with A53H, N54A, Q56N, R57K, F59Y
VL: B1 VL
notes: assembled
B20: MS-Roche #7.11.H5 Fab (Fab, V domains shown)
VH: B1 VH with N54H, K58T, F59Y
VL: B1 VL with L90Q, I92V, N94S, M95P, I97H
B21: MS-Roche #7.3.L1 Fab (Fab, V domains shown)
VH: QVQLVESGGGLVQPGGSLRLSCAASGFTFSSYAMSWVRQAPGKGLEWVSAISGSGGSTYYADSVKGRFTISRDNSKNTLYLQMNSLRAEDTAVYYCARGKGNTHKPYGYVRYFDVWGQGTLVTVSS
VL: DIVLTQSPATLSLSPGERATLSCRASQYLHYGYLAWYQQKPGQAPRLLIYGASSRATGVPARFSGSGSGTDFTLTISSLEPEDFAVYYCHQVYSHPFTFGQGTKVEIKR
B22: MS-Roche #7.9.H7 Fab (Fab, V domains shown)
VH: B1 VH with N54S, Q56T, K58T, F59Y
VL: B1 VL
notes: also called MSR 7.9H7
B23: MS-Roche #7.9.L2 Fab (Fab, V domains shown)
VH: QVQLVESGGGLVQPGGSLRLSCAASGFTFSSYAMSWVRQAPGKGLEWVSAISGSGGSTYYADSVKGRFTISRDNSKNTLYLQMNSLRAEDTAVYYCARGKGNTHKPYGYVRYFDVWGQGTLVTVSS
VL: B1 VL with S28Y, V29L, S30H, S31K, S32R
B24: MS-Roche #7.9.H8 Fab (Fab, V domains shown)
VH: B1 VH with N54S, Q56S, R57K, K58I, F59Y
VL: B1 VL
notes: assembled
B25: MS-Roche #7.9.H9 Fab (Fab, V domains shown)
VH: B1 VH with A53G, N54K, Q56N, R57K, F59Y
VL: B1 VL
notes: assembled
B26: MS-Roche #7.11.H4 Fab (Fab, V domains shown)
VH: B1 VH with Q56Y, R57K, K58T, F59Y
VL: B1 VL with L90Q, I92V, N94S, M95P, I97H
B27: MS-Roche #7.3.H1 Fab (Fab, V domains shown)
VH: B1 VH with N52S, N54I, G55S, Q56N, R57K, K58T, F59Y
VL: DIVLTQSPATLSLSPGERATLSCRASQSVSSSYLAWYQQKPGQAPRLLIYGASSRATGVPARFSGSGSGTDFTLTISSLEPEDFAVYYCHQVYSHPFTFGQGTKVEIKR
B28: MS-Roche #7.11.H3 Fab (Fab, V domains shown)
VH: B1 VH with A50G, Q56N, K58T, F59Y
VL: B1 VL with L90Q, I92V, N94S, M95P, I97H
B29: MS-Roche #8.2.H4 Fab (Fab, V domains shown)
VH: QVQLVESGGGLVQPGGSLRLSCAASGFTFSSYAMSWVRQAPGKGLEWVSATSVKGKTYYADSVKGRFTISRDNSKNTLYLQMNSLRAEDTAVYYCARLLSRGYNGYYHKFDVWGQGTLVTVSS
VL: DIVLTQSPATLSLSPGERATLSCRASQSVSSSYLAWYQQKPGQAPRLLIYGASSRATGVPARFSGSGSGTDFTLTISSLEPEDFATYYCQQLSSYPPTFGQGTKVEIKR
notes: H-CDR2 printed with 16 residues
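For OD ratio 17-22/BSA in this document: ELISA of antibody at 10 or 2 µg/ml binding plate-coated BSA–peptide conjugates, detected with HRP anti-human Ig and TMB colour, mock-treated BSA without peptide as negative control.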
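For OD ratio 19-24/BSA in this document: ELISA of antibody at 10 or 2 µg/ml binding plate-coated BSA–peptide conjugates, detected with HRP anti-human Ig and TMB colour, mock-treated BSA without peptide as negative control.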
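For Peptide-ratio 17-22/2-7 in this document: ELISA of antibody at 10 or 2 µg/ml binding plate-coated BSA–peptide conjugates, detected with HRP anti-human Ig and TMB colour, mock-treated BSA without peptide as negative control.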
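For Peptide-ratio 19-24/2-7 in this document: ELISA of antibody at 10 or 2 µg/ml binding plate-coated BSA–peptide conjugates, detected with HRP anti-human Ig and TMB colour, mock-treated BSA without peptide as negative control.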

For one assay, the target named is T1, BSA-conjugated Aβ heptapeptide FFAEDVC. In words: ELISA. Background: ELISA stands for enzyme-linked immunosorbent assay.
Protocol: (§1) 50 μl of NSMP activated BSA (6.7 mg/ml) was diluted with 50 μl of PBS, 0.1% sodium azide and 10 μl of peptide solution (1 mM in DMSO) was added. As negative control activated BSA was mock-treated without peptide addition. After 4 hrs at room temperature the reaction was stopped by addition of 10 μl of 10 mM Cystein. An aliquot of the conjugate reaction mixture was diluted 1:100 with 0.1M sodium bicarbonate buffer and immediately filled into the wells (100 μl) of ELISA plates (Nunc Immuno-Plate). After standing 16 hrs at 4° C. 100 μl blocking buffer (as above) was added to each well and incubated for another 30 minutes. The plates were washed with 2×300 μl/well TBST (as above) and filled with 100 μl antibody at 10 μg/ml or 2 μg/ml in blocking buffer. The plates were kept 16 hours at 4° C. and washed with 2×300 μl TBST. 100 μl/well HRP-conjugated anti-human Ig H+L (Pierce, dilution 1:1000 with blocking buffer) was added and incubated for 1 hour at ambient temperature. The plates were washed with 3×300 μl/well TBST. Colour development was started by addition of 100 μl tetra-methyl benzidine/hydrogen peroxide reagent.
B1: the “OD ratio 19-24/BSA” value stood at 6 and the “Peptide-ratio 19-24/2-7” value came to 0.19.

B2: the “OD ratio 19-24/BSA” value is 16 and the “Peptide-ratio 19-24/2-7” value is 0.51.

In another assay the target is T2, BSA-conjugated Aβ heptapeptide LVFFAEC. In words: ELISA.
Protocol: as §1
Take B1: the “OD ratio 17-22/BSA” value was 7 and the “Peptide-ratio 17-22/2-7” value is 0.23.

Regarding B2, the “OD ratio 17-22/BSA” value was 16 and the “Peptide-ratio 17-22/2-7” value was 0.52.

Another assay concerns the target T3, BSA-conjugated Aβ heptapeptide AEFRHDC. The assay is described as follows: ELISA.
Protocol: as §1
With B1, the “OD ratio 2-7/BSA” value was found to be 32.

In the case of B2, the “OD ratio 2-7/BSA” value was determined as 31.

A further assay addresses T4, BSA-conjugated Aβ heptapeptide VFFAEDC. The assay is described as follows: ELISA.
Protocol: as §1
Take B1: the “OD ratio 18-23/BSA” value is 12 and the “Peptide-ratio 18-23/2-7” value is 0.36.

For the molecule B2, the “OD ratio 18-23/BSA” value came out at 20 and the “Peptide-ratio 18-23/2-7” value stood at 0.65.

The next assay addresses T5, human Aβ (1-40) peptide (human).
T5 construct: also called Aβ1-40 fibers
In words: SPR, immobilized fibers.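 Also: biacore SPR using in vitro grown Aβ1-40 or Aβ1-42 fibrils immobilized on the chip with Fab analytes, KD from koff/kon fits or equilibrium isotherms based on total Fab concentration.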 A general note: SPR reads the build-up and loss of mass on a sensor chip optically.
In general, Kd refers to the concentration at which binding is half-saturated. B3 came in with a Kd of 32.3 nM.

In the case of B4, the Kd was determined as 5.4 nM.

Turning to B5, the affinity, expressed as Kd, was 13.7 nM.

Molecule B6 returned a Kd of 13.3 nM.

B7 gave a Kd of 16.3 nM.

B8 returned a Kd of 1 nM.

For B9, the Kd was 0.6 nM.

Molecule B10 gave a Kd of 4 nM.

Molecule B11 had a Kd of 2 nM.

With B12, the affinity, expressed as Kd, was 0.8 nM.

The molecule B13 yielded a Kd of 15.5 nM. This Kd lies about 19-fold higher than the previous one.

Molecule B14 gave a Kd of 1.1 nM.

For B15, the equilibrium dissociation constant (Kd) is 5.6 nM.

B16 had a Kd of 1.1 nM.

Molecule B17 had a Kd of 1.5 nM. This Kd and that of the molecule before are within 1.5-fold of each other.

Turning to B18, the Kd was 1 nM.

Regarding B19, the Kd turned out to be 1.7 nM.

Regarding B20, the Kd was determined as 3.4 nM.

As for B21, the Kd is 4.5 nM.

The molecule B22 came in with a dissociation constant (Kd) of 1 nM.

Turning to B23, the Kd is 1 nM.

B24 displayed a Kd of 0.8 nM.

On to B25, for which the Kd came out at 0.9 nM.

Molecule B26 yielded a Kd of 1 nM.

The molecule B27 gave a Kd of 8 nM.

With B28, binding was put at a Kd of 6.6 nM.

Turning to B29, the Kd turned out to be 12.1 nM.

The next assay addresses T6, Aβ (1-42) peptide (human).
T6 construct: also called Aβ1-42 fibers; Aβ4
In words: SPR, immobilized fibers.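 Also: biacore SPR using in vitro grown Aβ1-40 or Aβ1-42 fibrils immobilized on the chip with Fab analytes, KD from koff/kon fits or equilibrium isotherms based on total Fab concentration.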
Molecule B3 had a dissociation constant Kd of 18.8 nM.

Consider B4, for which binding was characterised by a dissociation constant (Kd) of 7.5 nM.

With B5, the Kd worked out at 13.1 nM.

For B6, the Kd was 16.8 nM.

The molecule B7 gave a Kd of 9.1 nM. Compared with the last molecule, the Kd is about 1.8-fold lower.

B9: the Kd turned out to be 0.8 nM.

B10 had a Kd of 5.4 nM.

B11 gave a Kd of 0.6 nM.

Regarding B12, binding was put at a Kd of 0.9 nM.

In turn, B13 showed a Kd of 8.1 nM.

As to B14, binding was put at a Kd of 1.2 nM.

B15 returned a Kd of 4 nM. This Kd is about 3.3-fold higher than that of the molecule before.

B16 registered a Kd of 1.1 nM.

Regarding B17, the Kd stood at 2.1 nM. Compared with the last molecule, the Kd is about 1.9-fold higher.

As for B18, the Kd is 1.1 nM.

Consider B19, for which the Kd was 1.8 nM.

In turn, B20 registered a Kd of 1.7 nM.

The molecule B21 returned a Kd of 6 nM.

B22 came in with a Kd of 0.9 nM.

In turn, B23 displayed a Kd of 0.5 nM.

Take B24: the Kd stood at 0.7 nM.

For B25, the affinity, expressed as Kd, was 0.9 nM. This Kd and that of the molecule before are within 1.5-fold of each other.

Molecule B26 came in with a Kd of 1.7 nM.

As to B27, the Kd came to 11.2 nM.

The molecule B28 returned a Kd of 4.4 nM.

B29: the affinity, expressed as Kd, was 11.9 nM.
